Experimental data as given in PMC4470865 (Current biology : CB, 2015).

Biological target: actin filaments (Alexa488 label on 3-20% of the actin in the microscopy assays)
Assay: co-sedimentation

B1: unlabeled Tm1A (recombinant AS-Tm1A, non-muscle Drosophila tropomyosin isoform Tm1A) (natural protein)
chain: MASMTTSIPQGTLLDVLKKKMRQTKEEMEKYKDECEEFHKRLQLEVVRREEAESEVAALNRRIQLLEEDLERSEERLGSATAKLSEASQAADESERIRKALENRTNMEDDKVALLENQLAQAKLIAEEADKKYEEVARKLVLMEQDLERSEEKVELSESKIVELEEELRVVGNNLKSLEVSEEKATQKEETFETQIKVLDHSLKEAEARAEFAERSVQKLQKEVDRLEDDLLNVRGKNKLLQEEMEATLHDIQNM
Kd: 46 nM
